In publication PMC11739670 (2024):

Assays:
[1] = target: HLA-A*24:02 peptide-MHC class I (biotinylated pMHCI) (human | , biotin on the Avi-tag (BirA ligase)); experiment: SPR; average over HLA-A24 peptides, 25°C
[2] = target: HLA-A*01:01 peptide-MHC class I (biotinylated pMHCI) (human | , biotin on the Avi-tag (BirA ligase)); experiment: SPR; average over HLA-A1 peptides, 25°C
[3] = target: HLA-A*03:01 peptide-MHC class I (biotinylated pMHCI) (human | , biotin on the Avi-tag (BirA ligase)); experiment: SPR; average over HLA-A3 peptides, 25°C

Kd [1]: 214 µM
Kd [2]: 120 µM
Kd [3]: 133 µM
B1: soluble human CD8αβ-Fc heterodimer (Fc fusion)
chain 1: not shown
chain 2: LQQTPAYIKVQTNKMVMLSCEAKISLSNMRIYWLRQRQAPSSDSHHEFLALWDSAKGTIHGEEVEQEKIAVFRDASRFILNLTSVKPEDSGIYFCMIVGSPELTFGKGTQLSVVDFLPTTAQPTKKSTLKKRVCRLPRPETQKGPLCSP
